This series relates to Escherichia coli TOP10. The experiment in a line: shrunken log2 fold change of peptide-encoding DNA abundance (4.5 h post-induction vs induction); higher = less antimicrobial activity (less host growth inhibition). As to conditions: time post-induction: 4.5 h; library: site-saturation at positions 5, 18, 19, 20.
For the sequence RRIRDRPPRLPRPRPRPHCYPRP, the “shrunken log2 fold change” value was -0.106. In the case of RRIRQRPPRLPRPRPRPGKMPRP it was 0.0812; in that of RRIRLRPPRLPRPRPRPQGHPRP, 0.137; in that of RRIRCRPPRLPRPRPRPEIGPRP, -0.237. The figure for RRIRRRPPRLPRPRPRPWVAPRP is 0.219; for RRIRLRPPRLPRPRPRPTSEPRP it is -0.0829; for RRIRSRPPRLPRPRPRPTYTPRP it is -0.24.

For RRIRIRPPRLPRPRPRPFPGPRP, the “shrunken log2 fold change” value was -0.155. The figure for RRIRDRPPRLPRPRPRPQTDPRP is -0.0328; for RRIRKRPPRLPRPRPRPREWPRP it is 1.77; for RRIRGRPPRLPRPRPRPTGPPRP it is 0.692.

Turning to RRIRDRPPRLPRPRPRPCPVPRP, the “shrunken log2 fold change” value was -0.426. As for RRIRSRPPRLPRPRPRPSVEPRP, the “shrunken log2 fold change” value is -0.0505.

In the case of RRIRARPPRLPRPRPRPHWKPRP, the “shrunken log2 fold change” value was -0.00664.

On to RRIRVRPPRLPRPRPRPFVLPRP, for which the “shrunken log2 fold change” value is -0.322. Take RRIRPRPPRLPRPRPRPPNLPRP: the “shrunken log2 fold change” value came out at 0.0664. The figure for RRIRGRPPRLPRPRPRPSMKPRP is 0.354; for RRIRQRPPRLPRPRPRPMCYPRP it is -0.01. In the case of RRIRVRPPRLPRPRPRPLHGPRP it was 0.0379; in that of RRIRDRPPRLPRPRPRPGFTPRP, 0.125; in that of RRIRIRPPRLPRPRPRPQFPPRP, -0.0492.

As to RRIRNRPPRLPRPRPRPSEAPRP, the “shrunken log2 fold change” value turned out to be 0.00843.

As for RRIRNRPPRLPRPRPRPRFKPRP, the “shrunken log2 fold change” value is 0.0387. RRIRNRPPRLPRPRPRPTAEPRP: the “shrunken log2 fold change” value was -0.0644. In the case of RRIRCRPPRLPRPRPRPEFAPRP it was 0.375; in that of RRIRTRPPRLPRPRPRPGTNPRP, -0.0901; in that of RRIRVRPPRLPRPRPRPSPIPRP, -0.324.

As for RRIRNRPPRLPRPRPRPAEMPRP, the “shrunken log2 fold change” value was -0.00992. The figure for RRIRGRPPRLPRPRPRPNNVPRP is -0.131; for RRIRNRPPRLPRPRPRPKEIPRP it is 0.0136. In the case of RRIRWRPPRLPRPRPRPMTQPRP it was 0.0159; in that of RRIRVRPPRLPRPRPRPTVDPRP, 0.177. Take RRIRDRPPRLPRPRPRPYDFPRP: the “shrunken log2 fold change” value was -0.178.

As for RRIRLRPPRLPRPRPRPFVWPRP, the “shrunken log2 fold change” value turned out to be 0.118.

On to RRIRERPPRLPRPRPRPEIQPRP, for which the “shrunken log2 fold change” value was 0.422.

Turning to RRIRLRPPRLPRPRPRPLDCPRP, the “shrunken log2 fold change” value was 0.0132.

Consider RRIRNRPPRLPRPRPRPELMPRP, for which the “shrunken log2 fold change” value stood at 0.232.

Consider RRIRDRPPRLPRPRPRPGMRPRP, for which the “shrunken log2 fold change” value was found to be 1.02.

Take RRIRVRPPRLPRPRPRPLQPPRP: the “shrunken log2 fold change” value stood at 0.158.

For the sequence RRIRGRPPRLPRPRPRPVETPRP, the “shrunken log2 fold change” value stood at 0.689. The figure for RRIRGRPPRLPRPRPRPHPHPRP is 0.399. As to RRIRKRPPRLPRPRPRPNITPRP, the “shrunken log2 fold change” value was -0.0249.

In the case of RRIRRRPPRLPRPRPRPKQKPRP, the “shrunken log2 fold change” value turned out to be 0.264.

RRIRQRPPRLPRPRPRPKKPPRP: the “shrunken log2 fold change” value was determined as 0.0619. In the case of RRIRARPPRLPRPRPRPMNDPRP it was 0.138. Regarding RRIRERPPRLPRPRPRPEKTPRP, the “shrunken log2 fold change” value is -0.031.

With RRIRCRPPRLPRPRPRPTIYPRP, the “shrunken log2 fold change” value was -0.644.

In the case of RRIRGRPPRLPRPRPRPINIPRP, the “shrunken log2 fold change” value was determined as 0.00461. In the case of RRIRQRPPRLPRPRPRPPEHPRP it was 0.0412. In the case of RRIRNRPPRLPRPRPRPSKHPRP it was -0.545. In the case of RRIRVRPPRLPRPRPRPCRAPRP, the “shrunken log2 fold change” value worked out at 0.0373. RRIRKRPPRLPRPRPRPVFDPRP: the “shrunken log2 fold change” value was 0.171. In the case of RRIRRRPPRLPRPRPRPVPHPRP it was 0.449; in that of RRIRNRPPRLPRPRPRPIPRPRP, 0.0496.

For the sequence RRIRSRPPRLPRPRPRPKWWPRP, the “shrunken log2 fold change” value was determined as 0.0275. The figure for RRIRHRPPRLPRPRPRPPSAPRP is 0.496; for RRIRGRPPRLPRPRPRPGHGPRP it is 0.323; for RRIRGRPPRLPRPRPRPLPEPRP it is 0.884. Take RRIRIRPPRLPRPRPRPEVDPRP: the “shrunken log2 fold change” value was -0.0435. In the case of RRIRQRPPRLPRPRPRPEDFPRP it was -0.0175; in that of RRIRVRPPRLPRPRPRPKSHPRP, 1.35. In the case of RRIRSRPPRLPRPRPRPQAAPRP it was 0.544; in that of RRIRCRPPRLPRPRPRPPPVPRP, 1.24. In the case of RRIRRRPPRLPRPRPRPIGYPRP it was 0.0143; in that of RRIRLRPPRLPRPRPRPQHKPRP, -0.0846. On to RRIRFRPPRLPRPRPRPHAKPRP, for which the “shrunken log2 fold change” value worked out at 0.229.

With RRIRERPPRLPRPRPRPGTFPRP, the “shrunken log2 fold change” value is -0.378. In the case of RRIRARPPRLPRPRPRPRYQPRP it was -0.274. For RRIRCRPPRLPRPRPRPPMMPRP, the “shrunken log2 fold change” value is -0.0549. The figure for RRIRMRPPRLPRPRPRPNDIPRP is -0.0213; for RRIRTRPPRLPRPRPRPKIEPRP it is -0.00653; for RRIRARPPRLPRPRPRPTVVPRP it is 0.238. In the case of RRIRTRPPRLPRPRPRPKENPRP it was 0.15; in that of RRIRDRPPRLPRPRPRPQNRPRP, -0.28; in that of RRIRHRPPRLPRPRPRPEGCPRP, 0.0614. The figure for RRIRARPPRLPRPRPRPSVGPRP is 0.324; for RRIRPRPPRLPRPRPRPQIQPRP it is -0.286. Consider RRIRGRPPRLPRPRPRPDQWPRP, for which the “shrunken log2 fold change” value worked out at 0.665. The figure for RRIRHRPPRLPRPRPRPLDGPRP is -0.34; for RRIRKRPPRLPRPRPRPKIEPRP it is -0.0694. RRIRRRPPRLPRPRPRPDHFPRP: the “shrunken log2 fold change” value worked out at 0.0408. The figure for RRIRHRPPRLPRPRPRPPNIPRP is -0.157. The figure for RRIRDRPPRLPRPRPRPEPIPRP is -0.0153. For the sequence RRIRSRPPRLPRPRPRPGNTPRP, the “shrunken log2 fold change” value is -0.472. RRIRYRPPRLPRPRPRPIDFPRP: the “shrunken log2 fold change” value is -0.245. In the case of RRIRFRPPRLPRPRPRPYTAPRP it was -1.07; in that of RRIRYRPPRLPRPRPRPARIPRP, 0.0141; in that of RRIRQRPPRLPRPRPRPFILPRP, -0.635.

In the case of RRIRDRPPRLPRPRPRPRGYPRP, the “shrunken log2 fold change” value turned out to be 0.03.

Take RRIRYRPPRLPRPRPRPSNTPRP: the “shrunken log2 fold change” value is -1.06. The figure for RRIRWRPPRLPRPRPRPSKIPRP is -0.152; for RRIRCRPPRLPRPRPRPEGEPRP it is 3.03. In the case of RRIRMRPPRLPRPRPRPCDTPRP it was 0.13. The figure for RRIRARPPRLPRPRPRPFDNPRP is 0.098; for RRIRVRPPRLPRPRPRPPWEPRP it is 0.252. As to RRIRWRPPRLPRPRPRPVKAPRP, the “shrunken log2 fold change” value amounted to 0.284. In the case of RRIRSRPPRLPRPRPRPPIWPRP it was 0.0326. In the case of RRIRNRPPRLPRPRPRPETEPRP it was -0.0793; in that of RRIRRRPPRLPRPRPRPGANPRP, 0.208; in that of RRIRERPPRLPRPRPRPGPGPRP, 0.268. In the case of RRIRARPPRLPRPRPRPRDRPRP it was 0.706; in that of RRIRGRPPRLPRPRPRPRMLPRP, 0.356; in that of RRIRYRPPRLPRPRPRPGPCPRP, -0.227. RRIRFRPPRLPRPRPRPPTWPRP: the “shrunken log2 fold change” value was 0.239. Regarding RRIRKRPPRLPRPRPRPHINPRP, the “shrunken log2 fold change” value is -0.124. In the case of RRIRARPPRLPRPRPRPQASPRP it was 0.242; in that of RRIRDRPPRLPRPRPRPEPLPRP, 0.0701. In the case of RRIRVRPPRLPRPRPRPDVMPRP it was -0.00879; in that of RRIRIRPPRLPRPRPRPDDCPRP, -0.271. In the case of RRIRWRPPRLPRPRPRPYNSPRP it was -0.178; in that of RRIRNRPPRLPRPRPRPHRHPRP, -0.222; in that of RRIRPRPPRLPRPRPRPCMGPRP, -0.398. On to RRIRVRPPRLPRPRPRPGKCPRP, for which the “shrunken log2 fold change” value worked out at 0.0804. The figure for RRIRTRPPRLPRPRPRPNDQPRP is -0.212.

Consider RRIRDRPPRLPRPRPRPGAEPRP, for which the “shrunken log2 fold change” value turned out to be 1.08. In the case of RRIRQRPPRLPRPRPRPFQSPRP it was -0.0102. On to RRIRGRPPRLPRPRPRPMNMPRP, for which the “shrunken log2 fold change” value is -0.318. In the case of RRIRWRPPRLPRPRPRPMVLPRP it was -0.243; in that of RRIRWRPPRLPRPRPRPSVYPRP, 0.0378; in that of RRIRKRPPRLPRPRPRPQTHPRP, 0.372. The figure for RRIRNRPPRLPRPRPRPMMQPRP is -0.208; for RRIRRRPPRLPRPRPRPYKDPRP it is -0.249. The figure for RRIRWRPPRLPRPRPRPGDPPRP is 1.14; for RRIRWRPPRLPRPRPRPFQWPRP it is 0.236; for RRIRRRPPRLPRPRPRPLDNPRP it is -0.0599.

For the origin of these results see the supplement of paper PMC9112550, “Optimization of the antimicrobial peptide Bac7 by deep mutational scanning” (BMC Biology, 2022).
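Note: peptides expressed intracellularly from a pBAD plasmid library in pooled LB shake-flask culture, induced with 0.3% L-arabinose, DNA abundance read by NGS, three biological replicates, DESeq2 with apeglm shrinkage.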
